This data set deals with T1, 2-Quinolinylcarbonyl-L-Valinyl-L-Aspartyl (methyl ester)-L-Valinyl-L-Alanyl-L-Aspartyl (methyl ester) 2,6-difluorophenyl ester.
T1 chain: VDVAD

B1: caspase-2 in brain of ischemic rat pups (protein)
chain: GPPCLQVKPCTPEFYQAHYQLAYRLQSQPRGLALVMSNVHFTGEKDLEFRSGGDVDHTTLVTLFKLLGYNVHVLYDQTAQEMQEKLQNFAQLPAHRVTDSCIVALLSHGVEGGIYGVDGKLLQLQEVFRLFDNANCPSLQNKPKMFFIQACRGDETDRGVDQQDGKNHAQSPGCEESDAGKEELMKMRLPTRSDMICGYACLKGNAAMRNTKRGSWYIEALTQVFSERACDMHVADMLVKVNALIKEREGYAPGTEFHRCKEMSEYCSTLCQQLYLFPGYPPT
As for B1, the “caspase-2 activity (VDVAD-AMC cleavage) and caspase-2 processing (western blot) in brain homogenates” value is on record as “it inhibited caspase-2 activity as well as caspase-2 processing in brain of ischemic rat pups”.

B2: human recombinant caspase-3 (protein)
chain: SGISLDNSYKMDYPEMGLCIIINNKNFHKSTGMTSRSGTDVDAANLRETFRNLKYEVRNKNDLTREEIVELMRDVSKEDHSKRSSFVCVLLSHGEEGIIFGTNGPVDLKKITNFFRGDRCRSLTGKPKLFIIQACRGTELDCGIETDSGVDDDMACHKIPVEADFLYAYSTAPGYYSWRNSKDGSWFIQSLCAMLKQYADKLEFMHILTRVNRKVATEFESFSFDATFHAKKQIPCIVSMLTKELYFYH
Take B2: the “in vitro cleavage of Ac-DEVD-AMC by the recombinant caspase” value is on record as “no cross reactivity against other caspases”.

B3: human recombinant caspase-7 (protein)
chain: AKPDRSSFVPSLFSKKKKNVTMRSIKTTRDRVPTYQYNMNFEKLGKCIIINNKNFDKVTGMGVRNGTDKDAEALFKCFRSLGFDVIVYNDCSCAKMQDLLKKASEEDHTNAACFACILLSHGEENVIYGKDGVTPIKDLTAHFRGDRCKTLLEKPKLFFIQACRGTELDDGIQADSGPINDTDANPRYKIPVEADFLFAYSTVPGYYSWRSPGRGSWFVQALCSILEEHGKDLEIMQILTRVNDRVARHFESQSDDPHFHEKKQIPCVVSMLTKELYFSQ
As for B3, the “in vitro cleavage of Ac-DEVD-AMC by the recombinant caspase” value is recorded as “no cross reactivity against other caspases”.

B4: human recombinant caspase-10 (protein)
chain: VKTFLEALPQESWQNKHAGSNGNRATNGAPSLVSRGMQGASANTLNSETSTKRAAVYRMNRNHRGLCVIVNNHSFTSLKDRQGTHKDAEILSHVFQWLGFTVHIHNNVTKVEMEMVLQKQKCNPAHADGDCFVFCILTHGRFGAVYSSDEALIPIREIMSHFTALQCPRLAEKPKLFFIQACQGEEIQPSVSIEADALNPEQAPTSLQDSIPAEADFLLGLATVPGYVSFRHVEEGSWYIQSLCNHLKKLVPRMLKFLEKTMEIRGRKRTVWGAKQISATSLPTAISAQTPRPPMRRWSSVS
B4: the “in vitro cleavage of Ac-IETD-AMC by the recombinant caspase” value was “no cross reactivity against other caspases”.

B5: human recombinant caspase-9 (protein)
chain: MDEADRRLLRRCRLRLVEELQVDQLWDALLSRELFRPHMIEDIQRAGSGSRRDQARQLIIDLETRGSQALPLFISCLEDTGQDMLASFLRTNRQAAKLSKPTLENLTPVVLRPEIRKPEVLRPETPRPVDIGSGGFGDVGALESLRGNADLAYILSMEPCGHCLIINNVNFCRESGLRTRTGSNIDCEKLRRRFSSLHFMVEVKGDLTAKKMVLALLELAQQDHGALDCCVVVILSHGCQASHLQFPGAVYGTDGCPVSVEKIVNIFNGTSCPSLGGKPKLFFIQACGGEQKDHGFEVASTSPEDESPGSNPEPDATPFQEGLRTFDQLDAISSLPTPSDIFVSYSTFPGFVSWRDPKSGSWYVETLDDIFEQWAHSEDLQSLLLRVANAVSVKGIYKQMPGCFNFLRKKLFFKTS
With B5, the “in vitro cleavage of Ac-LEHD-AMC by the recombinant caspase” value is “no cross reactivity against other caspases”.

B6: human recombinant caspase-5 (protein)
chain: DQKITSVKPLLQIEAGPPESAESTNILKLCPREEFLRLCKKNHDEIYPIKKREDRRRLALIICNTKFDHLPARNGAHYDIVGMKRLLQGLGYTVVDEKNLTARDMESVLRAFAARPEHKSSDSTFLVLMSHGILEGICGTAHKKKKPDVLLYDTIFQIFNNRNCLSLKDKPKVIIVQACRGEKHGELWVRDSPASLALISSQSSENLEADSVCKIHEEKDFIAFCSSTPHNVSWRDRTRGSIFITELITCFQKYSCCCHLMEIFRKVQKSFEVPQAKAQMPTIERATLTRDFYLFPGN
For B6, the “in vitro cleavage of Ac-WEHD-AMC by the recombinant caspase” value was “no cross reactivity against other caspases”.

B7: human recombinant caspase-1 (protein)
chain: NPAMPTSSGSEGNVKLCSLEEAQRIWKQKSAEIYPIMDKSSRTRLALIICNEEFDSIPRRTGAEVDITGMTMLLQNLGYSVDVKKNLTASDMTTELEAFAHRPEHKTSDSTFLVFMSHGIREGICGKKHSEQVPDILQLNAIFNMLNTKNCPSLKDKPKVIIIQACRGDSPGVVWFKDSVGVSGNLSLPTTEEFEDDAIKKAHIEKDFIAFCSSTPDNVSWRHPTMGSVFIGRLIEHMQEYACSCDVEEIFRKVRFSFEQPDGRAQMPTTERVTLTRCFYLFPGH
On to B7, for which the “in vitro cleavage of Ac-YVAD-AMC by the recombinant caspase” value was “no cross reactivity against other caspases”.

B8: human recombinant caspase-6 (protein)
chain: AFYKREMFDPAEKYKMDHRRRGIALIFNHERFFWHLTLPERRGTCADRDNLTRRFSDLGFEVKCFNDLKAEELLLKIHEVSTVSHADADCFVCVFLSHGEGNHIYAYDAKIEIQTLTGLFKGDKCHSLVGKPKIFIIQACRGNQHDVPVIPLDVVDNQTEKLDTNITEVDAASVYTLPAGADFLMCYSVAEGYYSHRETVNGSWYIQDLCEMLGKYGSSLEFTELLTLVNRKVSQRRVDFCKDPSAIGKKQVPCFASMLTKKLHFFPKSN
With B8, the “in vitro cleavage of Ac-VEID-AMC by the recombinant caspase” value is “no cross reactivity against other caspases”.

B9: human recombinant caspase-8 (protein)
chain: SESQTLDKVYQMKSKPRGYCLIINNHNFAKAREKVPKLHSIRDRNGTHLDAGALTTTFEELHFEIKPHDDCTVEQIYEILKIYQLMDHSNMDCFICCILSHGDKGIIYGTDGQEAPIYELTSQFTGLKCPSLAGKPKVFFIQACQGDNYQKGIPVETDSEEQPYLEMDLSSPQTRYIPDEADFLLGMATVNNCVSYRNPAEGTWYIQSLCQSLRERCPRGDDILTILTEVNYEVSNKDDKKNMGKQMPQPTFTLRKKLVFPSD
With B9, the “in vitro cleavage of Ac-IETD-AMC by the recombinant caspase” value is “no cross reactivity against other caspases”.

B10: human recombinant caspase-4 (protein)
chain: QISPNKKAHPNMEAGPPESGESTDALKLCPHEEFLRLCKERAEEIYPIKERNNRTRLALIICNTEFDHLPPRNGADFDITGMKELLEGLDYSVDVEENLTARDMESALRAFATRPEHKSSDSTFLVLMSHGILEGICGTVHDEKKPDVLLYDTIFQIFNNRNCLSLKDKPKVIIVQACRGANRGELWVRDSPASLEVASSQSSENLEEDAVYKTHVEKDFIAFCSSTPHNVSWRDSTMGSIFITQLITCFQKYSWCCHLEEVFRKVQQSFETPRAKAQMPTIERLSMTRYFYLFPGN
With B10, the “in vitro cleavage of Ac-WEHD-AMC by the recombinant caspase” value is listed as “no cross reactivity against other caspases”.

The values above are taken from patent US8173600.
